According to patent publication US20150079112A1 (SAMSUNG ELECTRONICS, published 2015):

B1: FLAG-tagged hAng2 (ligand)
chain: YNNFRKSMDSIGKKQYQVQHGSCSYTFLLPEMDNCRSSSSPYVSNAVQRDAPLEYDDSVQRLQVLENIMENNTQWLMKLENYIQDNMKKEMVEIQQNAVQNQTAVMIEIGTNLLNQTAEQTRKLTDVEAQVLNQTTRLELQLLEHSLSTNKLEKQILDQTSEINKLQDKNSFLEKKVLAMEDKHIIQLQSIKEEKDQLQVLVSKQNSIIEELEKKIVTATVNNSVLQKQQHDLMETVNNLLTMMSTSNSAKDPTVAKEEQISFRDCAEVFKSGHTTNGIYTLTFPNSTEEIKAYCDMEAGGGGWTIIQRREDGSVDFQRTWKEYKVGFGNPSGEYWLGNEFVSQLTNQQRYVLKIHLKDWEGNEAYSLYEHFYLSSEELNYRIHLKGLTGTAGKISSISQPGNDFSTKDGDNDKCICKCSQMLTGGWWFDACGPSNLNGMYYPQRQNTNKFNGIKWYYWKGSGYSLKATTMMIRPADF
notes: not shown: FLAG tag
B2: Ang2 protein (R&D systems) (ligand)
chain: B1 chain
notes: It may be the same product as the C-His hAng2 of the SPR; also called human Ang2 protein (R&D systems; 623-AN-025/CF)
B3: 4H10 (antibody, V domains shown)
VH: EVQLLESGGGLVQPGGSLRLSCAASGFTFSSYDMSWVRQAPGKGLEWVSLISPDSSSIYYADSVKGRFTISRDNSKNTLYLQMNSLRAEDTAVYYCAKDLISFWRGGFDYWGQGTLVTVSS
VL: QSVLTQPPSASGTPGQRVTISCSGSSSNIGSNYVNWYQQLPGTAPKLLIYADSNRPSGVPDRFSGSKSGTSASLAISGLRSEDEADYYCGSWDYSLSGYVFGGGTKLTVLG
notes: also called antibody 4H10

Key:
[1] = target: T1, hTie2-Fc (R&D Systems) (human, UniProt Q02763 23-745); experiment: competition ELISA: FLAG-tagged hAng2 (400 ng/ml) bound to coated hTie2-Fc in the presence of titrated 10D6, detected with anti-FLAG-HRP
T1 construct: also called hTie-2/Fc fusion protein; not shown: Fc of human IgG1
Procedure: (§1) More specifically, MaxiSorp™ flat-bottom plate (Nunc) of 96-well was coated with hTie2-Fc (R&D Systems) which is a protein bound with 4 ug (microgram)/ml of Fc of human IgG1. After that, the plate was washed five times with 0.05% (v/v) Tween-20-containing PBS (phosphate buffer saline) and then blocked with 1% (v/v) BSA (bovine serum albumin; Sigma)-containing PBS at a room temperature for 2 hour.
(§2) For Ang2:Tie2 competition ELISA, each anti-Ang2 antibody obtained in Example 2 was placed at various concentrations of 400 nM to 0.001 nM into each well coated with the hTie-2/Fc fusion protein along with 1% (v/v) BSA and 400 ng/ml of a FLAG-tagged hAng2 and then, the plate was allowed to react at a room temperature for 2 hours and washed five times with PBST. After that, an anti-FLAG antibody (Sigma) conjugated with HRP diluted in 1% (v/v) BSA-containing PBS at a ratio of 1:5,000 (v/v) was added in an amount of 100 ul (microliter) to each well to react at a room temperature for 1 hour and then, the plate was washed five times with PBST. Lastly, 100 ul (microliter) of TMB substrate (Cell Signaling) was added to each well of the plate to induce color development for 3 min. and then, the reaction was ceased by the addition of 100 ul of Stop solution (Cell Signaling) and OD450 values were measured on a plate reader (Molecular Devices).

[2] = target: T1, hTie2-Fc (R&D Systems); experiment: ELISA, coated Tie2-Fc 4 ug/ml, Ang2 0.25 ug/ml and 10D6 2 ug/ml added, anti-mouse IgG-HRP, OD450
Procedure: A 96-well MaxiSorp™ flat-bottom plate (Nunc) was coated with 4 ug/ml of Tie2-Fc (R&D systems) or BSA (Sigma). Then, the plate was washed five times with 0.05% (v/v) Tween-20-containing PBS (Phosphate Buffer Saline) and blocked with 1% (v/v) BSA (Bovine serum albumin; Sigma)-containing PBS at a room temperature for 2 hours. 0.25 ug/ml of Ang2 and 2 ug/ml of antibody 10D6 were added to each well of the plate, which was allowed to react at a room temperature for 2 hours and then washed five times with PBST. After that, an anti-mouse IgG antibody (Sigma) conjugated with HRP diluted in 1% (v/v) BSA-containing PBS at a ratio of 1:5,000 (v/v) was added in an amount of 100 ul to each well to react at a room temperature for 1 hour and then, the plate was washed five times with PBST. Lastly, 100 ul (microliter) of TMB substrate (Cell Signaling) was added to each well of the plate to induce color development for 3 min. and then, the reaction was ceased by the addition of 100 ul of Stop solution (Cell Signaling) and OD450 values were measured on a plate reader (Molecular Devices).

[3] = target: B1; experiment: competition ELISA: antibody titrated with FLAG-tagged hAng2 (400 ng/ml) on coated hTie2-Fc, bound Ang2 detected with anti-FLAG-HRP; blocked ligand pair Ang2-Tie2
Procedure: as §1
as §2, with “Devices). […]” for “Devices).”

T1 sequence (Q02763 23-745 limits assumed): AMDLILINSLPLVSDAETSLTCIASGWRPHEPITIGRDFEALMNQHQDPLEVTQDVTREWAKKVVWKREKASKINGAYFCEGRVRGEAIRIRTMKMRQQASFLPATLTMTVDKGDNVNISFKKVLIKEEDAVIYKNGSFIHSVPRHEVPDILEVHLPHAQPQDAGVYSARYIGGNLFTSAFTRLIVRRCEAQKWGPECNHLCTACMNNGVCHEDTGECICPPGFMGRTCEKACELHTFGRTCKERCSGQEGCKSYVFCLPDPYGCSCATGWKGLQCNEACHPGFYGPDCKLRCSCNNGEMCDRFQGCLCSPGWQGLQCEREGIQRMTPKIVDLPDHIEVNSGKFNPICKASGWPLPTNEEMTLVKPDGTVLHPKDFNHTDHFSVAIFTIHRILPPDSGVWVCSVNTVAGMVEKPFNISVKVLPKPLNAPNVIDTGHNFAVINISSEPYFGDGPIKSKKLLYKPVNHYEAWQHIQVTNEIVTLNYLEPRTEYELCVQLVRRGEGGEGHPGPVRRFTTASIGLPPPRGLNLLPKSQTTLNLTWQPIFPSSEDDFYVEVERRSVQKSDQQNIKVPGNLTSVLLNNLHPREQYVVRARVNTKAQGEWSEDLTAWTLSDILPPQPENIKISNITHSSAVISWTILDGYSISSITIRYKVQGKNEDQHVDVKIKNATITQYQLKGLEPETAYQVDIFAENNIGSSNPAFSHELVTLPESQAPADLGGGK

Question: Does B1 bind [1]?
Answer: binds

Question: Does B2 bind [2]?
Answer: binds

Question: For B3, which “IC50 (read off the curve)” value [3] is on record?
Answer: ~0.2 nM
